This passage reports Kd results from article PMC2148200.

By Kd is commonly meant a measure of binding affinity in units of concentration.

For one assay, the target named is TGF-β1. The experiment in a line: ELISA. (ELISA stands for enzyme-linked immunosorbent assay.)
For assay [1], the target named is human recombinant BMP-2 (human) (UniProt P12643). The experiment in a line: ELISA.
human recombinant BMP-2 (human), sequence (P12643 283-396): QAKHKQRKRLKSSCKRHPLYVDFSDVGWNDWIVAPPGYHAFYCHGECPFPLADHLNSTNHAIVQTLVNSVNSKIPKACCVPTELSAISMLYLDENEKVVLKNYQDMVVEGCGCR

Regarding “recombinant human type IIA procollagen NH2-propeptide (rhIIA-GST, exon 2-GST fusion protein) (domain or fragment)”, the Kd with TGF-β1 is 7.65 nM; in assay [1] it was 5.23 nM.
